{"source": "paper PMC4344342", "molecular_target": "RpL26-eGFP (UniProt P61254)", "assay": "fluorescence cross-correlation spectroscopy (FCCS); live HeLa cells co-transfected with the two labelled proteins, two-photon excitation at 1020 nm, green and red channels, cytoplasm"}
{"substance": "NCp7-mCherry (natural protein)", "values": [{"measurement": "percent of NCp7-mCherry molecules that cross-correlate with RpL26-eGFP", "result": "40 to 70", "unit": "%"}]}
